# Test results: patent US20230193513A1 (TWIST BIOSCIENCE, published 2023)
# Key:
# Experiment in all cases: cell-based or functional assay
# [1] = target: T1, glucagon-like peptide-1 receptor (GLP1R) (Homo sapiens (Human), UniProt P43220 24-463)
# [2] = target: T1, glucagon-like peptide-1 receptor (GLP1R); remark: listed apart in the source
# [3] = target: T1, glucagon-like peptide-1 receptor (GLP1R); remark: listed apart in the source
# [4] = target: T1, glucagon-like peptide-1 receptor (GLP1R); remark: listed apart in the source
# T1 sequence (P43220 24-463): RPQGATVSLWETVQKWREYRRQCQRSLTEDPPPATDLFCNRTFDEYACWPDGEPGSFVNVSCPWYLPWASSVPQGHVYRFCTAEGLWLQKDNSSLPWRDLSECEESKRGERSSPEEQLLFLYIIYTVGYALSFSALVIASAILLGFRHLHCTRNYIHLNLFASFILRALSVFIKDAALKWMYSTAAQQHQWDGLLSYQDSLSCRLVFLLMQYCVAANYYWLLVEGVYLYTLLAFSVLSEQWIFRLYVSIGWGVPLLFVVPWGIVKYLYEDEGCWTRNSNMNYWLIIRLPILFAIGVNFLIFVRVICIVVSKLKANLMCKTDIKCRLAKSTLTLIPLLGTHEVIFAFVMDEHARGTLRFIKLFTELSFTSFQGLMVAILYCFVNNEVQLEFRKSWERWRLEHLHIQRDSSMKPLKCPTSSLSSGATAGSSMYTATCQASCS
Binder,EC50 (nM) of GLP1 (7-36) in the cAMP assay after 100 nM IgG [1] [nM],other results
"GLP1R-238 (antibody, human IgG2, lambda, V domains shown) VH: QVQLVQSGAEVKKPGSSVKVSCKASGGSFSSHAISWVRQAPGQGLEWMGGIIPIFGAPNYAQKFQGRVTITADESTSTAYMELSSLRSEDTAVYYCARANQHFSQAGRAARVPGPSSSLGPRGYHYYGMDVWGQGTLVTVSS VL: QSVLTQPPSVSAAPGQKVTISCSGSTSNIANNYVSWYQQLPGTAPKLLIYANNRRPSGIPDRFSGSKSGTSATLGITGLQTGDEADYYCGAWDVRLDVGVFGGGTKLTVLG",0.0879,–
"GLP1R-239 (antibody, human IgG2, lambda) heavy: QVQLVESGGGVVQPGRSLRLSCAASGFDFSNYGMHWVRQAPGKGLEWVADISYEGSNKYYADSVKGRFTISRDNSKNTLYLQMNSLRAEDTAVYYCAKHMSMQSQGLDNLAARDFINWLIQTKITDGFELSRADLVGDAFDVWGQGTLVTVSSASASTKGPSVFPLAPCSRSTSESTAALGCLVKDYFPEPVTVSWNSGALTSGVHTFPAVLQSSGLYSLSSVVTVPSSNFGTQTYTCNVDHKPSNTKVDKTVERKCCVECPPCPAPPVAGPSVFLFPPKPKDTLMISRTPEVTCVVVDVSHEDPEVQFNWYVDGVEVHNAKTKPREEQFNSTFRVVSVLTVVHQDWLNGKEYKCKVSNKGLPAPIEKTISKTKGQPREPQVYTLPPSREEMTKNQVSLTCLVKGFYPSDIAVEWESNGQPENNYKTTPPMLDSDGSFFLYSKLTVDKSRWQQGNVFSCSVMHEALHNHYTQKSLSLSPG light: QSVLTQPPSVSAAPGQKVTISCSGSTSNIEKNYVSWYQQLPGTAPKLLIYGNDQRPSGIPDRFSGSKSGTSATLGITGLQTGDEADYYCGTWENRLSAVVFGGGTKLTVLGQPKAAPSVTLFPPSSEELQANKATLVCLISDFYPGAVTVAWKADSSPVKAGVETTTPSKQSNNKYAASSYLSLTPEQWKSHRSYSCQVTHEGSTVEKTVAPTECS",0.0799,–
"GLP1R-240 (antibody, human IgG2, lambda) heavy: QVQLVQSGAEVKKPGSSVKVSCKASGGTFNNYGISWVRQAPGQGLEWMGGIIPVFGTANYAQKFQGRVTITADESTSTAYMELSSLRSEDTAVYYCARDMYYDFFGLGTFTSDVSSYLEGQAAKEFIAWLVKGVSPEVVPADDAFDIWGQGTLVTVSSASASTKGPSVFPLAPCSRSTSESTAALGCLVKDYFPEPVTVSWNSGALTSGVHTFPAVLQSSGLYSLSSVVTVPSSNFGTQTYTCNVDHKPSNTKVDKTVERKCCVECPPCPAPPVAGPSVFLFPPKPKDTLMISRTPEVTCVVVDVSHEDPEVQFNWYVDGVEVHNAKTKPREEQFNSTFRVVSVLTVVHQDWLNGKEYKCKVSNKGLPAPIEKTISKTKGQPREPQVYTLPPSREEMTKNQVSLTCLVKGFYPSDIAVEWESNGQPENNYKTTPPMLDSDGSFFLYSKLTVDKSRWQQGNVFSCSVMHEALHNHYTQKSLSLSPG light: QSVLTQPPSVSAAPGQKVTISCSGSSSSIGNNYVSWYQQLPGTAPKLLIYANNKRPSGIPDRFSGSKSGTSATLGITGLQTGDEADYYCATWSSSPRGWVFGGGTKLTVLGQPKAAPSVTLFPPSSEELQANKATLVCLISDFYPGAVTVAWKADSSPVKAGVETTTPSKQSNNKYAASSYLSLTPEQWKSHRSYSCQVTHEGSTVEKTVAPTECS",0.0654,–
"GLP1R-241 (antibody, human IgG2, lambda) heavy: QVQLVQSGAEVKKPGSSVKVSCKASGGTFSDYAISWVRQAPGQGLEWMGGIIPIFGTTNYAQKFQGRVTITADESTSTAYMELSSLRSEDTAVYYCAKHMSMQGSVAGGTFTSDVSSYLEGQAAKEFIAWLVKGGPSFIRADLVGDAFDVWGQGTLVTVSSASASTKGPSVFPLAPCSRSTSESTAALGCLVKDYFPEPVTVSWNSGALTSGVHTFPAVLQSSGLYSLSSVVTVPSSNFGTQTYTCNVDHKPSNTKVDKTVERKCCVECPPCPAPPVAGPSVFLFPPKPKDTLMISRTPEVTCVVVDVSHEDPEVQFNWYVDGVEVHNAKTKPREEQFNSTFRVVSVLTVVHQDWLNGKEYKCKVSNKGLPAPIEKTISKTKGQPREPQVYTLPPSREEMTKNQVSLTCLVKGFYPSDIAVEWESNGQPENNYKTTPPMLDSDGSFFLYSKLTVDKSRWQQGNVFSCSVMHEALHNHYTQKSLSLSPG light: QSVLTQPPSVSAAPGQKVTISCSGISSNIGNNYVSWYQQLPGTAPKLLIYDDDQRPSGIPDRFSGSKSGTSATLGITGLQTGDEADYYCGTWDNILSAAVFGGGTKLTVLGQPKAAPSVTLFPPSSEELQANKATLVCLISDFYPGAVTVAWKADSSPVKAGVETTTPSKQSNNKYAASSYLSLTPEQWKSHRSYSCQVTHEGSTVEKTVAPTECS",0.103,EC50 (nM) of GLP1 (7-36)-induced signaling with GLP1R IgG (+100 nM) [2]: 0.103 nM; fold difference of the EC50 against no antibody [3]: 1.7 fold
"GLP1R-242 (antibody, human IgG2, lambda) heavy: QVQLVQSGAEVKKPGSSVKVSCKASGGTFSSYEISWVRQAPGQGLEWMGGIIPILGIANYAQKFQGRVTITADESTSTAYMELSSLRSEDTAVYYCAKHMSMQADTGTFTSDVSSYLEGQAAKEFIAWLVKGEFSSRADLVGDAFDVWGQGTLVTVSSASASTKGPSVFPLAPCSRSTSESTAALGCLVKDYFPEPVTVSWNSGALTSGVHTFPAVLQSSGLYSLSSVVTVPSSNFGTQTYTCNVDHKPSNTKVDKTVERKCCVECPPCPAPPVAGPSVFLFPPKPKDTLMISRTPEVTCVVVDVSHEDPEVQFNWYVDGVEVHNAKTKPREEQFNSTFRVVSVLTVVHQDWLNGKEYKCKVSNKGLPAPIEKTISKTKGQPREPQVYTLPPSREEMTKNQVSLTCLVKGFYPSDIAVEWESNGQPENNYKTTPPMLDSDGSFFLYSKLTVDKSRWQQGNVFSCSVMHEALHNHYTQKSLSLSPG light: QSVLTQPPSVSAAPGQKVTISCSGSSSNIENNDVSWYQQLPGTAPKLLIYGNDQRPSGIPDRFSGSKSGTSATLGITGLQTGDEADYYCGTWDNTLSAGVFGGGTKLTVLGQPKAAPSVTLFPPSSEELQANKATLVCLISDFYPGAVTVAWKADSSPVKAGVETTTPSKQSNNKYAASSYLSLTPEQWKSHRSYSCQVTHEGSTVEKTVAPTECS",~0.0653,–
"GLP1R-243 (antibody, human IgG2, lambda, V domains shown) VH: QVQLVQSGAEVKKPGSSVKVSCKASGGTFSTYGINWVRQAPGQGLEWMGGIIPIFGTANYAQKFQGRVTITADESTSTAYMELSSLRSEDTAVYYCARANQHFFGKGDNLAARDFINWLIQTKITDGSNPGYHYYGMDVWGQGTLVTVSS VL: QSVLTQPPSVSAAPGQKVTISCSGSRSNIGKNYVSWYQQLPGTAPKLLIYENNERPSGIPDRFSGSKSGTSATLGITGLQTGDEADYYCSSYTTSNTQVFGGGTKLTVLG",0.128,–
"GLP1R-244 (antibody, human IgG2, lambda, V domains shown) VH: QVQLVQSGAEVKKPGSSVKVSCKASGGTFSSYAISWVRQAPGQGLEWMGGIIPIFGTANYAQKFQGRVTITADESTSTAYMELSSLRSEDTAVYYCARANQHFAATGAGEGQAAKEFIAWLVKGRVEIGYHYYGMDVWGQGTLVTVSS VL: QSVLTQPPSVSAAPGQKVTISCSGSSSNIGNNVVSWYQQLPGTAPKLLIYDNDKRRSGIPDRFSGSKSGTSATLGITGLQTGDEADYYCGSWDTSLSVWVFGGGTKLTVLG",0.154,–
GLP1R-59-2 (antibody) chain 1: QVQLVESGGGVVQPGRSLRLSCAASGFTFSNYGMSWVRQAPGKGLEWVAVISYDAGNKYYADSVKGRFTISRDNSKNTLYLQMNSLRAEDTAVYYCARDMYYDFETVVEGIQWYEALKAGKLGEVVPADDAFDIWGQGTLVTVSSASTKGPSVFPLAPCSRSTSESTAALGCLVKDYFPEPVTVSWNSGALTSGVHTFPAVLQSSGLYSLSSVVTVPSSNFGTQTYTCNVDHKPSNTKVDKTVERKCCVECPPCPAPPVAGPSVFLFPPKPKDTLMISRTPEVTCVVVDVSHEDPEVQFNWYVDGVEVHNAKTKPREEQFNSTFRVVSVLTVVHQDWLNGKEYKCKVSNKGLPAPIEKTISKTKGQPREPQVYTLPPSREEMTKNQVSLTCLVKGFYPSDIAVEWESNGQPENNYKTTPPMLDSDGSFFLYSKLTVDKSRWQQGNVFSCSVMHEALHNHYTQKSLSLSPGK chain 2: HGEGTFTSDVSSYLEEQAAKEFIAWLVKGGGGGGGSGGGGSGGGGSQSALTQPASVSGSPGQSITISCTGTSNDIGTYNYVSWYQQHPGKAPKLMIYDVSGRPSGVSNRFSGSKSGNTASLTISGLQAEDEADYYCSSYTTSSTEVFGGGTKLTVLGQPKAAPSVTLFPPSSEELQANKATLVCLISDFYPGAVTVAWKADSSPVKAGVETTTPSKQSNNKYAASSYLSLTPEQWKSHRSYSCQVTHEGSTVEKTVAPTECS,–,"EC50 (nM) of the IgG as agonist, functional assay on GLP-1R overexpressing cells [4]: 0.842 nM"
